Residue numbers refer to the chain shown, from its start. Numbers in names are those of the source.
How the values were obtained:
Assay in all cases: cell-based or functional assay
hGH mutant Q141N (human) = hGH mutant Q141N (human) (UniProt P01241)
hGH mutant Q40N (human) = hGH mutant Q40N (human) (UniProt P01241)
[1] = biological target: Human growth hormone (human) (UniProt P01241)
Human growth hormone (human), sequence (P01241 27-217 limits assumed): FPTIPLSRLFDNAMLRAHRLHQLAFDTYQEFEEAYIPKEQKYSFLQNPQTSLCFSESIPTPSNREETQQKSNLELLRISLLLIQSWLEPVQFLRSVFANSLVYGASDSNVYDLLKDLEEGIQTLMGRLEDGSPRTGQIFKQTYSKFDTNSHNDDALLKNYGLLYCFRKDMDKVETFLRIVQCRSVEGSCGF

hGH mutant Q40N (human), sequence (P01241 27-217 Q66N): as the sequence (P01241 27-217 limits assumed) above, with Q40N counted along it
hGH mutant Q141N (human), sequence (P01241 27-217 Q167N): as the sequence (P01241 27-217 limits assumed) above, with Q141N counted along it

B1: TGase from Streptoverticillium ladakanum (enzyme)
chain: DSDERVTPPAEPLDRMPDPYRPSYGRAETIVNNYIRKWQQVYSHRDGRKQQMTEEQREWLSYGCVGVTWVNSGQYPTNRLAFAFFDEDKYKNELKNGRPRSGETRAEFEGRVAKDSFDEAKGFQRARDVASVMNKALENAHDEGAYLDNLKKELANGNDALRNEDARSPFYSALRNTPSFKDRNGGNHDPSKMKAVIYSKHFWSGQDRSGSSDKRKYGDPEAFRPDRGTGLVDMSRDRNIPRSPTSPGESFVNFDYGWFGAQTEADADKTVWTHGNHYHAPNGSLGAMHVYESKFRNWSDGYSDFDRGAYVVTFVPKSWNTAPDKVKQGWP
Q: Which results are given for B1?
A: Gln 40 vs Gln 141 (normalized), Gln 40 share (normalized ratio) (hGH mutant Q141N (human)): 11; HPLC peak area of remaining hGH-Q141N (area (arbitrary units)) (hGH mutant Q141N (human)): 1160; Gln 40 vs Gln 141 (normalized), Gln 141 share (normalized ratio) (hGH mutant Q40N (human)): 89; HPLC peak area of remaining hGH-Q40N (area (arbitrary units)) (hGH mutant Q40N (human)): 375

B2: TGase from S. mobaraense (wild type) (enzyme)
chain: DSDDRVTPPAEPLDRMPDPYRPSYGRAETVVNNYIRKWQQVYSHRDGRKQQMTEEQREWLSYGCVGVTWVNSGQYPTNRLAFASFDEDRFKNELKNGRPRSGETRAEFEGRVAKESFDEEKGFQRAREVASVMNRALENAHDESAYLDNLKKELANGNDALRNEDARSPFYSALRNTPSFKERNGGNHDPSRMKAVIYSKHFWSGQDRSSSADKRKYGDPDAFRPAPGTGLVDMSRDRNIPRSPTSPGEGFVNFDYGWFGAQTEADADKTVWTHGNHYHAPNGSLGAMHVYESKFRNWSEGYSDFDRGAYVITFIPKSWNTAPDKVKQGWP
Q: Which results are given for B2?
A: About 50% hGH reacted at t=, enzyme 0.07 µM (min (printed in h and min)) [1]: 75; Transamination Gln 40 vs Gln 141 (Gln 40 share), CE, enzyme 0.07 µM (share of mono-transamination products) [1]: 15; Transamination Gln 40 vs Gln 141 (Gln 141 share), CE, enzyme 0.07 µM (share of mono-transamination products) [1]: 85; Gln 40 vs Gln 141 (normalized), Gln 40 share (normalized ratio) (hGH mutant Q141N (human)): 21; HPLC peak area of remaining hGH-Q141N (area (arbitrary units)) (hGH mutant Q141N (human)): 1290; Gln 40 vs Gln 141 (normalized), Gln 141 share (normalized ratio) (hGH mutant Q40N (human)): 79; HPLC peak area of remaining hGH-Q40N (area (arbitrary units)) (hGH mutant Q40N (human)): 519

B3: Y75E TGase (enzyme)
chain: B2 chain with Y75E
Q: Which About 50% hGH reacted at t=, enzyme 3.90 µM [1] does the source give for B3 here?
A: The About 50% hGH reacted at t=, enzyme 3.90 µM was less than 30 min.

Q: And the Transamination Gln 40 vs Gln 141 (Gln 40 share), CE, enzyme 3.90 µM (share of mono-transamination products) [1]?
A: The Transamination Gln 40 vs Gln 141 (Gln 40 share), CE, enzyme 3.90 µM (share of mono-transamination products) was 45.

Q: What about the Transamination Gln 40 vs Gln 141 (Gln 141 share), CE, enzyme 3.90 µM (share of mono-transamination products) [1] of the same binder?
A: The Transamination Gln 40 vs Gln 141 (Gln 141 share), CE, enzyme 3.90 µM (share of mono-transamination products) was 55.

B4: Y75E, Y302R TGase (enzyme)
chain: B2 chain with Y75E, Y302R
Q: For B4, which About 50% hGH reacted at t=, enzyme 7.20 µM (min (printed in h and min)) [1] is on record?
A: The About 50% hGH reacted at t=, enzyme 7.20 µM (min (printed in h and min)) was 90.

Q: And the Transamination Gln 40 vs Gln 141 (Gln 40 share), CE, enzyme 7.20 µM (share of mono-transamination products) [1]?
A: Its Transamination Gln 40 vs Gln 141 (Gln 40 share), CE, enzyme 7.20 µM (share of mono-transamination products) is 65.

Q: And the Transamination Gln 40 vs Gln 141 (Gln 141 share), CE, enzyme 7.20 µM (share of mono-transamination products) [1]?
A: Its Transamination Gln 40 vs Gln 141 (Gln 141 share), CE, enzyme 7.20 µM (share of mono-transamination products) is 35.

B5: Y302R TGase (enzyme)
chain: B2 chain with Y302R
Q: Which About 50% hGH reacted at t=, enzyme 0.39 µM [1] does the source give for B5 here?
A: The About 50% hGH reacted at t=, enzyme 0.39 µM was 30 min.

Q: And the Transamination Gln 40 vs Gln 141 (Gln 40 share), CE, enzyme 0.39 µM (share of mono-transamination products) [1]?
A: Its Transamination Gln 40 vs Gln 141 (Gln 40 share), CE, enzyme 0.39 µM (share of mono-transamination products) is 30.

Q: And the Transamination Gln 40 vs Gln 141 (Gln 141 share), CE, enzyme 0.39 µM (share of mono-transamination products) [1]?
A: Its Transamination Gln 40 vs Gln 141 (Gln 141 share), CE, enzyme 0.39 µM (share of mono-transamination products) is 70.

— patent US20090117640A1
